Source: the supplement of paper PMC10724198
± gives the standard deviation of the averaged measurements.

system: Saccharomyces cerevisiae; assay: protein stability index of tFT-peptide fusion (C-terminal peptide) (PSI (0-1 scale)); higher = more stable (slower turnover); conditions: genetic background: wild type; temperature: 30 C
Procedure: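 Multiplexed protein stability (MPS) profiling in S. cerevisiae. Random 12-aa peptides (tFT-X12 library) are fused to the C-terminus of a sfGFP-mCherry tandem fluorescent timer, after mCherry and a GGGS linker. Cells are FACS-sorted into 8 mCherry/sfGFP bins and deep-sequenced. The protein stability index (PSI) is the read-weighted bin average, scaled from 0 (unstable) to 1 (stable). Only peptides with >10 reads are reported; cells were grown at 30 °C in SC-His with glucose.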
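Note: PSI is a weighted mean of sequencing reads over stability bins, variants kept only with over 10 reads, mCherry proximal and sfGFP distal, peptide attached via GGGS linker.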

Sequence	protein stability index
ARLAYESSPLPR	0.7185 ± 0.0056
ARNDAGKRERVT	0.696 ± 0.016
ARNKKKDLREIK	0.761 ± 0.054
ARPCPRPHVPST	0.706 ± 0.043
ARPFLWDFCLGR	0.681 ± 0.028
ARPGAWAPTEVD	0.737 ± 0.0099
ARPLHSIGPAII	0.658 ± 0.0089
ARPPTPLRKGAP	0.673 ± 0.017
ARPSRPPPPSPP	0.662 ± 0.018
ARPVPRAPSRYA	0.647 ± 0.047
ARRTEEVVLRSL	0.693 ± 0.059
ARSERVVPKMQS	0.732 ± 0.043
ARSGDSGQPPSQ	0.689 ± 0.05
ARSPSPLPSPPP	0.702 ± 0.018
ARVPPFPCHPTL	0.686 ± 0.03
ARVRAREGGDRG	0.624 ± 0.0076
ASDSNPLDPADD	0.708 ± 0.011
ASEHRPPRPHER	0.683 ± 0.071
ASFPPVHPALSP	0.664 ± 0.035
ASIRLSPSWVQR	0.652 ± 0.0081
ASLLGLLIHLGR	0.6951 ± 0.0059
ASNPGPLTPPQP	0.705 ± 0.0087
ASPCTVAQDPRT	0.621 ± 0.023
ASPFASCPPSLP	0.714 ± 0.037
ASPPAYGPPPPP	0.6806 ± 0.0035

Sequence	protein stability index
ASPSPLPPLPPP	0.718 ± 0.1
ASPYTVTPLTNS	0.693 ± 0.016
ASSLSHLSLPAP	0.695 ± 0.017
ASSLSPSTFFCL	0.642 ± 0.015
ASSVVGLEERVR	0.728 ± 0.049
ASTCLKFTPTIF	0.883 ± 0.1
ASTSPSASSSPP	0.727 ± 0.024
ASVLGGLFRDRV	0.773 ± 0.057
ASVSVWLVFSGG	0.594 ± 0.0075
ASYGHCTTCRRT	0.717 ± 0.021
ASYGTRHSAPSV	0.678 ± 0.0076
ASYSFLSFCNRV	0.631 ± 0.015
ATACSIMISNAV	0.662 ± 0.029
ATKAKKGTMSHE	0.652 ± 0.051
ATPPSPLPPSPP	0.754 ± 0.061
ATQVGGPTHSHP	0.7016 ± 0.0031
ATRLFSSNLFLR	0.576 ± 0.051
ATSFSLLPACFS	0.686 ± 0.0007
ATYNASLERLRP	0.719 ± 0.2
AVAETCEQAGRG	0.675 ± 0.066
AVAYMAHLPITR	0.69 ± 0.019
AVCGSISSWMWF	0.696 ± 0.0092
AVFSWVTAGQCD	0.684 ± 0.027
AVGQAGITSLVL	0.699 ± 0.029
AVLGWAGGGWAG	0.694 ± 0.11

Sequence	protein stability index
AVLPSLWLWTKK	0.682 ± 0.095
AVPITRLPSPSP	0.6668 ± 0.0047
AVPSAPPNPDAS	0.704 ± 0.046
AVRDGSGCQCVG	0.6797 ± 0.0012
AVRGCGVGSGWR	0.713 ± 0.02
AVRYFKLCRSCL	0.65 ± 0.012
AVTLAPPRLRPL	0.761 ± 0.029
AVTSLGGGIILN	0.659 ± 0.045
AVWNWEEVWLSG	0.654 ± 0.023
AWGRRGGRMKVG	0.62 ± 0.022
AWGWGGTGSAGA	0.71 ± 0.0097
AWGWPWGHGFVV	0.738 ± 0.047
AWLLWGPVLRGI	0.694 ± 0.051
AYLPSLPPLGGI	0.717 ± 0.06
AYRITRSRGTEF	0.7233 ± 0.0036
CAGPLLIPPLSL	0.6895 ± 0.0042
CAIGECRGAGVS	0.679 ± 0.032
CAIGTGTKVKPS	0.684 ± 0.016
CALCRLGVAWVS	0.596 ± 0.021
CAPTFSYSLVLS	0.514 ± 0.036
CARAAFRGYYAQ	0.744 ± 0.074
CASPLHPCPKST	0.6542 ± 0.0023
CCGDAVVGPRVV	0.711 ± 0.041
CCGSSPLPPFTS	0.724 ± 0.055
CCISCSVCKDGS	0.6183 ± 0.00094

Sequence	protein stability index
CCLSGGFFLFGL	0.622 ± 0.062
CCPVTLLLPFPL	0.606 ± 0.01
CCRRWSLEWGRG	0.717 ± 0.038
CCVGVGTRLGFA	0.646 ± 0.082
CCVKRARVPHFV	0.6159 ± 0.0014
CDEVEGVLLVRG	0.707 ± 0.047
CDFVFEFSCVQV	0.577 ± 0.025
CDRAYSPLSRHN	0.6848 ± 0.0063
CDVLNQTRKRHK	0.7028 ± 0.0019
CEVGSKGCACRV	0.649 ± 0.025
CFFGSILYLCFG	0.5331 ± 0.0045
CFLLCLSSSPVL	0.64 ± 0.029
CFPYFCGFLGPL	0.697 ± 0.031
CFVIFFSSPGVC	0.583 ± 0.03
CGAAFRSWTVRG	0.653 ± 0.067
CGAVDTETWWGG	0.642 ± 0.024
CGGAVMREGQVG	0.681 ± 0.013
CGGGGASGAIAR	0.668 ± 0.013
CGGGRSTAWERS	0.63 ± 0.015
CGGVLAQREVSG	0.637 ± 0.021
CGIAGVKSLGLC	0.717 ± 0.039
CGSCFIKRFGGG	0.631 ± 0.034
CGSTRGDCVGIW	0.705 ± 0.05
CGTYFRLTRCAV	0.577 ± 0.043
CGVLPTPDRHHS	0.631 ± 0.084

Sequence	protein stability index
CGWAWGWRESKM	0.723 ± 0.1
CHPFQAAVPIYL	0.581 ± 0.12
CHRSSPPPPPPT	0.711 ± 0.046
CIFTVINNTPYC	0.801 ± 0.12
CISCVVDSPLSV	0.712 ± 0.045
CISGRGIYAKAF	0.699 ± 0.043
CLGSVFYCCWNF	0.648 ± 0.025
CLHFSFFTFENF	0.67 ± 0.02
CLPFSCFLLTPR	0.692 ± 0.014
CLPTGMSKFPDF	0.683 ± 0.029
CLRFPALPRRHP	0.772 ± 0.017
CLSHSIYYSFSF	0.691 ± 0.086
CLVLDILSETWL	0.71 ± 0.036
CLWCCFTDCCDT	0.762 ± 0.011
CLWLALMSIFLP	0.539 ± 0.03
CLWTSAQVPFQT	0.703 ± 0.0081
CMASCTRSYYRL	0.661 ± 0.005
CPAPCPPLPPHV	0.71997 ± 0.00064
CPCPSHLLLRSP	0.659 ± 0.0084
CPDGSGWLARGC	0.661 ± 0.11
CPFPPPPCPPPL	0.665 ± 0.02
CPGGRKPRQTAG	0.679 ± 0.14
CPGPPSLSPRPS	0.672 ± 0.029
CPLPIKANLSFP	0.705 ± 0.037
CPLPPPRPLLSA	0.651 ± 0.026

Sequence	protein stability index
CPPPPPPPPSRC	0.704 ± 0.036
CPPRIVRPRGVK	0.6775 ± 0.0019
CPRAPKTPISGI	0.635 ± 0.049
CPRPPPPTACPV	0.641 ± 0.1
CPSAPHNTLSTG	0.68 ± 0.052
CQERKLKNQPMV	0.607 ± 0.054
CQILLSYSGYPH	0.589 ± 0.021
CQWLIVEWEEKG	0.662 ± 0.083
CRAGSVGGIRGR	0.693 ± 0.015
CRPTGSSTRFQL	0.718 ± 0.01
CRWGGGGRRGRG	0.723 ± 0.025
CSAHVPAPHSYR	0.704 ± 0.061
CSDGAFELRRDG	0.544 ± 0.078
CSDISASTVSRL	0.715 ± 0.039
CSKLYGAFANTF	0.644 ± 0.1
CSKRTGRKSVTY	0.7299 ± 0.0063
CSLSGAFLNQAR	0.6842 ± 0.0041
CSPCSFCDLVSH	0.691 ± 0.03
CSSGGFSLFDEA	0.7504 ± 0.0024
CSWLVEWVLSFS	0.5417 ± 0.0041
CTAWGGWWTGRR	0.743 ± 0.16
